This note sets out measurements from publication PMC10502629.

For assay [1], the target named is SC-A0A4 (SpyCatcher fused to the N-terminus of the AaLS homologue A0A497XTC1 of Hydrogenivirga caldilitoris) (Hydrogenivirga caldilitoris). As to the kind of experiment: covalent SpyCatcher/SpyTag conjugation read by SDS-PAGE; purified SC-scaffolds incubated with ST-OVAT in conventional buffer without any enzyme (4 °C, 16 h in Figure 3e); conjugates purified by SEC, SDS-PAGE with Coomassie staining; reactivity kept after heating at 75 °C or 5 x …. Background: SEC sorts molecules by how far they enter the pores of the column.

The target in assay [2] is SC-AaLS (SpyCatcher fused to the N-terminus of Aquifex aeolicus lumazine synthase) (Aquifex aeolicus). Described as above.

Take “ST-OVAT (SpyTag fused to the N-terminus of ovalbumin T epitopes) (peptide)”: the percent conjugated in assay [1] and in assay [2] was 100% each time.
